Experimental data taken from paper PMC6555848 (2019).

Columns and labels:
[1] = molecular target: T1, His-tagged ABL1 kinase (UniProt P00519 1-1130); test: SPR; two-state model, kd1
[2] = molecular target: T1, His-tagged ABL1 kinase; test: SPR; two-state model

T1 sequence (P00519 whole entry): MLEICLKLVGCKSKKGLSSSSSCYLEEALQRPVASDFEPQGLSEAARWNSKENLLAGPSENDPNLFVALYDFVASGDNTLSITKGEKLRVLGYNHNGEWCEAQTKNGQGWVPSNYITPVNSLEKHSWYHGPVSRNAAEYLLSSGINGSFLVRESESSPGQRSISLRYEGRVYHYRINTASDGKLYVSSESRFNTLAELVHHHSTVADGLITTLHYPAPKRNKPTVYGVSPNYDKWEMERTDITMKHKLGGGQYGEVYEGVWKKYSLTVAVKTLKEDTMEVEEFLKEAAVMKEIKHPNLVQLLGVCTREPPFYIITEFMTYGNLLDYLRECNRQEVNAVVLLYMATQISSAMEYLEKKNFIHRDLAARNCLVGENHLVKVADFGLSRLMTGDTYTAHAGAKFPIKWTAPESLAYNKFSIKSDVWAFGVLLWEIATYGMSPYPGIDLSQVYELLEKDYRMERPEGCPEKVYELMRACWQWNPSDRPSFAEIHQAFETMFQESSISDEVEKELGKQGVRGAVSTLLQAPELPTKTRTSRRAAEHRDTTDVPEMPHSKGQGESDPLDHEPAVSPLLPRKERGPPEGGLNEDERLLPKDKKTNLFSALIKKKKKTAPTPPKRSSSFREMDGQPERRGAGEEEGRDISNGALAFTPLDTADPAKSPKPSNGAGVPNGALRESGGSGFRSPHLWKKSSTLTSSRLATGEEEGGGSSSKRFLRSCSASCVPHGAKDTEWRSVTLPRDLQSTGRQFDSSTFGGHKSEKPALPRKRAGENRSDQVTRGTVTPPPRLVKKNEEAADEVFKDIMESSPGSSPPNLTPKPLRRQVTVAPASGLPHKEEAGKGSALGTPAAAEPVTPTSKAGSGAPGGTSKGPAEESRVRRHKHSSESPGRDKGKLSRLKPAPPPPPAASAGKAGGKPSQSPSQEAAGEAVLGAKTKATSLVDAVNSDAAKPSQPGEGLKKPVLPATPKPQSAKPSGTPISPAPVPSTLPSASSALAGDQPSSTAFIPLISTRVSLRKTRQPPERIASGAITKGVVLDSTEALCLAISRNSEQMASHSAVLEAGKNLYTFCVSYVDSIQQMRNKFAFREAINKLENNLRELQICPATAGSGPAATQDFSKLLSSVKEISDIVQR

B1: full-length human STAT5B (M1-S787) (natural protein)
chain: MAVWIQAQQLQGEALHQMQALYGQHFPIEVRHYLSQWIESQAWDSVDLDNPQENIKATQLLEGLVQELQKKAEHQVGEDGFLLKIKLGHYATQLQNTYDRCPMELVRCIRHILYNEQRLVREANNGSSPAGSLADAMSQKHLQINQTFEELRLVTQDTENELKKLQQTQEYFIIQYQESLRIQAQFGPLAQLSPQERLSRETALQQKQVSLEAWLQREAQTLQQYRVELAEKHQKTLQLLRKQQTIILDDELIQWKRRQQLAGNGGPPEGSLDVLQSWCEKLAEIIWQNRQQIRRAEHLCQQLPIPGPVEEMLAEVNATITDIISALVTSTFIIEKQPPQVLKTQTKFAATVRLLVGGKLNVHMNPPQVKATIISEQQAKSLLKNENTRNDYSGEILNNCCVMEYHQATGTLSAHFRNMSLKRIKRSDRRGAESVTEEKFTILFESQFSVGGNELVFQVKTLSLPVVVIVHGSQDNNATATVLWDNAFAEPGRVPFAVPDKVLWPQLCEALNMKFKAEVQSNRGLTKENLVFLAQKLFNNSSSHLEDYSGLSVSWSQFNRENLPGRNYTFWQWFDGVMEVLKKHLKPHWNDGAILGFVNKQQAHDLLINKPDGTFLLRFSDSEIGGITIAWKFDSQERMFWNLMPFTTRDFSIRSLADRLGDLNYLIYVFPDRPKDEVYSKYYTPVPCESATAKAVDGYVKPQIKQVVPEFVNASADAGGGSATYMDQAPSPAVCPQAHYNMYPQNPDSVLDTDGDFDLEDTMDVARRVEELLGRPMDSQWIPHAQS
koff [1]: 93.9 s⁻¹ | Kd [2]: 280 nM
